Test results taken from patent US12528864 (GlaxoSmithKline, dated 2026).
Like-named read-outs stand apart in the source and are kept apart here.

What was measured:
[1] = target: T1, blood derived cynomolgus monkey CD96v2 on transiently transfected HEK cells (cynomolgus monkey); test: flow cytometry on transiently transfected HEK cells (Cyno blood derived CD96v2)
T1 construct: also called Blood derived Cyno CD96v2

[2] = target: T2, cynomolgus monkey CD96v2 expressed on cells (CHO cells; transiently transfected HEK cells) (cynomolgus monkey, UniProt A0A2K5TWV6 22-569); test: flow cytometry on transiently transfected HEK cells (Cyno CD96v2)
T2 construct: the cell is named under assay; also called CHO-cyCD96; Cyno CD96v2
T2 sequence: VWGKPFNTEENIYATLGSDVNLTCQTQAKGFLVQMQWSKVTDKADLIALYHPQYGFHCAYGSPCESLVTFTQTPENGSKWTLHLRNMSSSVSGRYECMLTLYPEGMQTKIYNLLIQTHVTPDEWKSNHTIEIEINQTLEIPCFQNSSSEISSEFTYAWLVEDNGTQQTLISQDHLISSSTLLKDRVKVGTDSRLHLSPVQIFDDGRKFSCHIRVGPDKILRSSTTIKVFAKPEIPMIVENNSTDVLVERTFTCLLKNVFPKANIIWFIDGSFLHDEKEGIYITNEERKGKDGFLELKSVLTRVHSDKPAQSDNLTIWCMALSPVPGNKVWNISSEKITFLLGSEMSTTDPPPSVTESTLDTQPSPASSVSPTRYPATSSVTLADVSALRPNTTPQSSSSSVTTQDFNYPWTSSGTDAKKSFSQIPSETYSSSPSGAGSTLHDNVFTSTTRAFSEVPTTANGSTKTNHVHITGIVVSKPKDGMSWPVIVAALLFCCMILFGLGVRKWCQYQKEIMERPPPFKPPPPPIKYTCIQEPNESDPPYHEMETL

[3] = target: T1, blood derived cynomolgus monkey CD96v2 …; test: flow cytometry on transiently transfected HEK cells; lower end of range, n = 3
[4] = target: T3, human CD96v1 on transiently transfected HEK cells (human, UniProt P40200 22-585); test: as above
T3 construct: whole, on cells
T3 sequence (looked up): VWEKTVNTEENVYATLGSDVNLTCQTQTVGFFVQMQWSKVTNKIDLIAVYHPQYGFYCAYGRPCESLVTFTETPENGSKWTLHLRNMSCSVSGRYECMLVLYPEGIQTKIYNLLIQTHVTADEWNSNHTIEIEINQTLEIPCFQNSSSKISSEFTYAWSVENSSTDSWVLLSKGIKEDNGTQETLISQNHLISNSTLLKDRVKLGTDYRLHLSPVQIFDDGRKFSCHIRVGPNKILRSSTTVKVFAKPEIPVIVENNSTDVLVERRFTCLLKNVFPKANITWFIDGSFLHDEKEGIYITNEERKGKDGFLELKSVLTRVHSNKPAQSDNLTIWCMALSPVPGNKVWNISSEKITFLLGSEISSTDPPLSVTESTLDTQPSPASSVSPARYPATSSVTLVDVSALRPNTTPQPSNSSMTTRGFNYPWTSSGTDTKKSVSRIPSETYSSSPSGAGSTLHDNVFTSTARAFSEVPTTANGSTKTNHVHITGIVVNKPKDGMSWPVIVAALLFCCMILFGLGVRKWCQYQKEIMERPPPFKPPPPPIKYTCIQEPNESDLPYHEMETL

[5] = target: T4, cynomolgus monkey CD96v1 on transiently transfected HEK cells (cynomolgus monkey); test: as above
T4 construct: whole, on cells; also called Cyno CD96v1

[6] = target: T5, human CD96v2 expressed on cells (CHO cells; transiently transfected HEK cells) (human, UniProt P40200-2 22-569); test: as above
T5 construct: whole, on cells; the cell is named under assay; also called CHO-huCD96; hCD96v2
T5 sequence (looked up): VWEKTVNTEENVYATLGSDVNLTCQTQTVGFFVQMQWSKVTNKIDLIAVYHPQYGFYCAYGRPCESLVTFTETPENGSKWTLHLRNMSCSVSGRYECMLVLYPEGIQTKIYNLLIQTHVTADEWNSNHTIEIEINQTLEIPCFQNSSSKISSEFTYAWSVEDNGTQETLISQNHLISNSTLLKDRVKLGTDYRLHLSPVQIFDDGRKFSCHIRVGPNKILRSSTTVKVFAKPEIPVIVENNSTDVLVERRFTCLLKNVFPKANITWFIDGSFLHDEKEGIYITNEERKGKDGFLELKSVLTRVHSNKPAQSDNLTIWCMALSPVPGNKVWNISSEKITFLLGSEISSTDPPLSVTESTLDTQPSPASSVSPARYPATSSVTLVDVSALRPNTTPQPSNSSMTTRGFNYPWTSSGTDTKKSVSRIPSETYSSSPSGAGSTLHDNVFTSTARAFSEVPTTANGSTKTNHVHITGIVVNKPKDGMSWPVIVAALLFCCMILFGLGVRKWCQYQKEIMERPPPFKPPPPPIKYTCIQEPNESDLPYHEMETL

[7] = target: T2, cynomolgus monkey CD96v2 expressed on …; test: as above
[8] = target: T5, human CD96v2 expressed on cells (CHO …); test: flow cytometry on transiently transfected HEK cells (Human CD96v2)
[9] = target: T1, blood derived cynomolgus monkey CD96v2 …; test: flow cytometry on transiently transfected HEK cells (Cyno blood derived CD96v2); remark: listed apart in the source
[10] = target: T6, cynomolgus monkey CD96, native, on primary cynomolgus monkey T cells (cynomolgus monkey, UniProt A0A2K5TWV6 22-569); test: flow cytometry on activated cynomolgus monkey T cells, pooled donor
T6 construct: whole, on cells
T6 sequence: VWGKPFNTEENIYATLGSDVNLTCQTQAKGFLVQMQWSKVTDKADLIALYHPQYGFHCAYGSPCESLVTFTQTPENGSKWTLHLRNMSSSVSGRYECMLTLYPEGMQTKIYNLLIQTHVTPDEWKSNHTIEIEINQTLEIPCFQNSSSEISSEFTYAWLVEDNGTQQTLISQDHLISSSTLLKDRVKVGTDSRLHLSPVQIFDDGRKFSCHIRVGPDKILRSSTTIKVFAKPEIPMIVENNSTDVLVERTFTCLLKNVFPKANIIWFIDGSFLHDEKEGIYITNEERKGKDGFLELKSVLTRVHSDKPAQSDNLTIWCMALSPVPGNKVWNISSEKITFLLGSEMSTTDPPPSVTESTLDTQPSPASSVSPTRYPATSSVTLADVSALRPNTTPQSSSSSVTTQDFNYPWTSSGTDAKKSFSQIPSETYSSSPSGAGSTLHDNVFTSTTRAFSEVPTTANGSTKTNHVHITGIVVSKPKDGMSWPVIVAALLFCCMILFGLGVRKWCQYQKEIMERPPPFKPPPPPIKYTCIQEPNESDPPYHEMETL

[11] = target: T2, cynomolgus monkey CD96v2 expressed on …; test: flow cytometry on transiently transfected HEK cells (Cyno CD96v2); remark: listed apart in the source

B1: 42Y073-86F08-66 (antibody)
heavy: not shown
light: DIQLTQSPSSLSASVGDRVTITCRASQSISSYLNWYQQKPGKAPKLLIYAASSLQSGVPSRFSGSGSGTDFTLTISSLQPEDFATYYCQQVLHTITFGGGTKVEIKRTVAAPSVFIFPPSDEQLKSGTASVVCLLNNFYPREAKVQWKVDNALQSGNSQESVTEQDSKDSTYSLSSTLTLSKADYEKHKVYACEVTHQGLSSPVTKSFNRGEC
notes: also called GSK 6097608; GSK6097608
EC50 (read off the curve) [1]: ~9 nM | EC50 (read off the curve) [2]: ~6 nM | EC50 [3]: 5.27 nM | EC50 [4]: 3.13 nM | EC50 [5]: 6.83 nM | EC50 [6]: 4.72 nM | EC50 [7]: 5.54 nM | EC50 (read off the curve) [8]: ~5 nM | EC50 (read off the curve) [9]: ~5 nM | EC50 (read off the curve) [10]: ~0.05 nM | EC50 (read off the curve) [11]: ~6 nM
